Experimental data as given in patent US20110135647.

Target: T1, C-terminal recombinant protein of F3374 (437-730 amino acids, His-tag)
T1 chain: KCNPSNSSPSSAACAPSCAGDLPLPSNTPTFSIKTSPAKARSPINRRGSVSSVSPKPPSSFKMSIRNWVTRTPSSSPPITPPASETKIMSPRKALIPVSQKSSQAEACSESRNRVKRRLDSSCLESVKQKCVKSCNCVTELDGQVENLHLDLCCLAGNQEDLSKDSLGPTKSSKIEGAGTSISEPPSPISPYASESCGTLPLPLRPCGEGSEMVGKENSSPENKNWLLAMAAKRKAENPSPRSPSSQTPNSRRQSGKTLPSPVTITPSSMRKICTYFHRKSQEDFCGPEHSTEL

B1: full-length recombinant protein of AURKB (Upstate) (protein)
chain: MAQKENSYPWPYGRQTAPSGLSTLPQRVLRKEPVTPSALVLMSRSNVQPTAAPGQKVMENSSGTPDILTRHFTIDDFEIGRPLGKGKFGNVYLAREKKSHFIVALKVLFKSQIEKEGVEHQLRREIEIQAHLHHPNILRLYNYFYDRRRIYLILEYAPRGELYKELQKSCTFDEQRTATIMEELADALMYCHGKKVIHRDIKPENLLLGLKGELKIADFGWSVHAPSLRRKTMCGTLDYLPPEMIEGRMHNEKVDLWCIGVLCYELLVGNPPFESASHNETYRRIVKVDLKFPASVPMGAQDLISKLLRHNPSERLPLAQVSAHPWVRANSRRVLPPSALQSVA
in vitro kinase assay (32P, autoradiography): found phosphorylation of the F3374 protein by AURKB in vitro
